Results on one molecule are retold here after patent publication EP4813394A2 (Albert-Ludwigs-Universität Freiburg, dated 2026).

In this assay the target is T1, TRMT112 (KMT9beta) (Homo sapiens, UniProt Q9UI30 1-125).
T1 construct: TRMT112 is untagged when co-expressed with His-C21orf127 and His-tagged when expressed alone (His-TRMT112); also called His-TRMT112
T1 sequence: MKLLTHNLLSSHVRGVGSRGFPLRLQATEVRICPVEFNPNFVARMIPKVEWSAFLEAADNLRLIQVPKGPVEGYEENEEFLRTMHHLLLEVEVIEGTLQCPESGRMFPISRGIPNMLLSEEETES
Nature of the assay: gel filtration chromatography (Superose 6 10/300 GL).

B1: C21orf127(N122A) (enzyme)
chain: MAGENFATPFHGHVGRGAFSDVYEPAEDTFLLLDALEAAAAELAGVEICLEVGSGSGVVSAFLASMIGPQALYMCTDINPEAAACTLETARCNKVHIQPVITDLVKGLLPRLTEKVDLLVFAPPYVVTPPQEVGSHGIEAAWAGGRNGREVMDRFFPLVPDLLSPRGLFYLVTIKENNPEEILKIMKTKGLQGTTALSRQAGQETLSVLKFTKS
notes: Co-expressed with TRMT112 as His-C21orf127(N122A)/TRMT112; also called KMT9alpha(N122A); His-C21orf127(N122A); not shown: N-terminal His tag from pDEST17 or pET-Duet1
With B1, the binding result was “binds”.
